Changes are numbered by the printed parent chain. In names and notes the source's numbering stands. Each block holds one binder with its values, some of them ahead of it.
How the values were obtained:
[1] = target: the molecule itself; assay: dynamic light scattering; USF2_bHLH-LZ-ext-DNA complexes, 400 μM sample; 100 mM KCl, 10 mM Hepes pH 7.5
[2] = target: the molecule itself; assay: SEC-MALS; 700 μM protein mixed with 350 μM E-box DNA, overnight at 4 °C; Superdex 75 Increase; 20 mM Hepes pH 7.5, 100 mM KCl, 10 mM DTT; 0.5 ml/min; the constant is of tetramer to dimers
[3] = target: the molecule itself; assay: crystal structure; USF2 235-346 cocrystallised with 18 bp double-stranded E-box DNA; sitting drop, 18 °C, 0.1 M Tris pH 7.0, 20% PEG4000; 3.5 Å; four protein chains in the asymmetric unit
[4] = target: T1, MBP-USF2_WT (human, UniProt Q15853 235-346); assay: fluorescence polarisation; fluorescence anisotropy; 10 nM 5IAF-labelled USF2_WT, MBP-USF2 proteins titrated 0-6 μM; 20 mM Tris 8.0, 50 mM KCl, 2 mM MgCl2, 0.5% glycerol; 4 °C overnight; apparent; dimer to monomers; conditions: both partners purified
T1 construct: Upstream stimulating factor 2 (USF2), human, isoform 1, residues 235-346 (bHLH-LZ-Ext domain); Built in a pHis-MBP-TEV vector; a TEV site lies between the tag and USF2; also called 6×HisMBP-USF2_WT; source: E. coli Rosetta (DE3), purified (Ni-HiTrap, Superdex 75); not shown: His6, N-terminal, kept; MBP, N-terminal, kept

[5] = target: T2, MBP-USF2 R248A (Homo sapiens, UniProt Q15853 235-346, R248A); assay: fluorescence anisotropy; FA: 20 nM FAM-DNA, 20 mM Tris pH 8.0, 50 mM KCl, 2 mM MgCl2, 0.5% glycerol, 4 C, 3 h; EMSA: 100 nM Cy3-DNA, 10 mM Tris pH 8.0, 50 mM KCl, 1 mM DTT, 2 mM MgCl2; conditions: protein: recombinant; tags: 6xHis-MBP N-terminal; chain copies: 2; label: 5'-FAM on strand 1; blunt as printed if S3 is read 3'-5' (printed with 5'-3' labels)
T2 sequence: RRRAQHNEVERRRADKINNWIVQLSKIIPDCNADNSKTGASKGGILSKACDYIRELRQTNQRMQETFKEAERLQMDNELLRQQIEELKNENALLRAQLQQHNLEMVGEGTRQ

[6] = target: T3, MBP-USF2 E244A (Homo sapiens, UniProt Q15853 235-346, E244A); assay: as above; conditions: protein: recombinant; tags: 6xHis-MBP N-terminal; chain copies: 2; label: 5'-FAM on strand 1; blunt as printed if S3 is read 3'-5' (printed with 5'-3' labels)
T3 sequence: T2 sequence with E10A, A14R

[7] = target: T4, MBP-USF2 R247A (Homo sapiens, UniProt Q15853 235-346, R247A); assay: as above; conditions: protein: recombinant; tags: 6xHis-MBP N-terminal; chain copies: 2; label: 5'-FAM on strand 1; blunt as printed if S3 is read 3'-5' (printed with 5'-3' labels)
T4 sequence: T2 sequence with R13A, A14R

[8] = target: T5, MBP-USF2 E244K (Homo sapiens, UniProt Q15853 235-346, E244K); assay: as above; conditions: protein: recombinant; tags: 6xHis-MBP N-terminal; chain copies: 2; label: 5'-FAM on strand 1; blunt as printed if S3 is read 3'-5' (printed with 5'-3' labels)
T5 sequence: T2 sequence with E10K, A14R

[9] = target: MBP-USF2 H240A (Homo sapiens, UniProt Q15853 235-346, H240A); assay: as above; conditions: protein: recombinant; tags: 6xHis-MBP N-terminal; chain copies: 2; label: 5'-FAM on strand 1; blunt as printed if S3 is read 3'-5' (printed with 5'-3' labels)
MBP-USF2 H240A, sequence (Q15853 235-346 H240A): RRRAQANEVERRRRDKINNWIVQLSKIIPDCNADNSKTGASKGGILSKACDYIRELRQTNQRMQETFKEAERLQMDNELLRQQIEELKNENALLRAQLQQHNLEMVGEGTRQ

[10] = target: MBP-USF2_ΔLZ-Ext (Homo sapiens, UniProt Q15853 235-292); assay: as above; conditions: protein: recombinant; tags: 6xHis-MBP N-terminal; chain copies: 2; label: 5'-FAM on strand 1; blunt as printed if S3 is read 3'-5' (printed with 5'-3' labels)
[11] = target: USF2_Q334K (Homo sapiens, UniProt Q15853 235-346, Q334K); assay: fluorescence anisotropy; similar to USF2_WT; FA: 20 nM FAM-DNA, 20 mM Tris pH 8.0, 50 mM KCl, 2 mM MgCl2, 0.5% glycerol, 4 C, 3 h; EMSA: 100 nM Cy3-DNA, 10 mM Tris pH 8.0, 50 mM KCl, 1 mM DTT, 2 mM MgCl2; conditions: protein: recombinant; chain copies: 2; label: 5'-FAM on strand 1; blunt as printed if S3 is read 3'-5' (printed with 5'-3' labels)
USF2_Q334K, sequence (Q15853 235-346 Q334K): as the sequence (Q15853 235-346 H240A) above, with A6H, Q100K counted along it

B1: USF2_bHLH-LZ-Ext (human USF2 isoform 1, residues 235-346) (domain or fragment, UniProt Q15853 235-346, looked up)
chain: T2 sequence with A14R
notes: Upstream stimulating factor 2 (USF2), human, isoform 1, residues 235-346 (basic region to the C terminus; bHLH-LZ-Ext); In the crystal, SEC-MALS and DLS experiments the protein was in complex with 18 bp E-box DNA; His-MBP tag removed with TEV protease; also called USF2_WT; bHLH-LZ-Ext domain of USF2; source: E. coli Rosetta (DE3), purified (Ni-HiTrap, Superdex 75; TEV cleavage, HiTrap SP, S75); …
- stoichiometry N [1]: 4
- Kd [2]: ~800000 nM
- stoichiometry N [3]: 2

B2: USF2_E312R_E320R (bHLH-LZ-Ext domain, residues 235-346, double mutant) (domain or fragment, human, UniProt Q15853 235-346, looked up)
chain: T2 sequence with A14R, E78R, E86R
notes: Upstream stimulating factor 2 (USF2), human, isoform 1, residues 235-346 (bHLH-LZ-Ext domain) with E312R and E320R; Generated on the construct MBP-USF2_WT; also called E312R/E320R double mutation; tetramer interface mutant; source: E. coli Rosetta (DE3), purified (Ni-HiTrap, Superdex 75)
- stoichiometry N [2]: 2

- Kd [4]: 100 ± 19 nM
B3: 5IAF-labelled USF2_WT (5IAFUSF2_WT; labelled CGG-USF2_WT) (domain or fragment, human)
chain: CGGRRRAQHNEVERRRRDKINNWIVQLSKIIPDCNADNSKTGASKGGILSKACDYIRELRQTNQRMQETFKEAERLQMDNELLRQQIEELKNENALLRAQLQQHNLEMVGEGTRQ
modifications: 5-iodoacetamido-fluorescein (5-IAF) on the sulfhydryl cysteine end of CGG-USF2_WT
notes: CGG added before USF2 for labelling with 5-IAF (construct MBP-CGG-USF2_WT); Upstream stimulating factor 2 (USF2), human, isoform 1, residues 235-346 (bHLH-LZ-Ext domain); Made from MBP-CGG-USF2_WT by TEV cleavage of the His-MBP tag; also called 5IAF labeled USF2_WT; source: E. coli Rosetta (DE3), purified (Ni-HiTrap, TEV cleavage, HiTrap SP, S75), labelled with 5-IAF; not shown: His6, N-terminal, …

B4: FAM E-box DNA (dsDNA)
DNA 1: GACGGGCACGTGACGCGC
DNA 2: GCGCGTCACGTGCCCGTC
- Kd [5]: 460 ± 79 nM
- Kd [6]: 72 ± 23 nM
- Kd [7]: 250 ± 67 nM
- Kd [8]: 290 ± 98 nM
- Kd [9]: 210 ± 43 nM
- binding signal [10]: > 20 fold decrease vs USF2_WT
- binding result [11]: binds

Source: article PMC10570711, “Tetramerization of upstream stimulating factor USF2 requires the elongated bent leucine zipper of the bHLH-LZ domain” (The Journal of Biological Chemistry, 2023)
